Legend:
[1] = tested on: HeLa Kyoto; assay: solubility in G1/S (NP-40 vs SDS abundance) (log2 ratio); higher = more soluble; conditions: cell cycle stage: G1/S
[2] = tested on: HeLa Kyoto; assay: melting temperature (median over replicates), in situ; higher = more thermally stable
[3] = tested on: HeLa Kyoto; assay: solubility change mitosis vs G1/S (difference of NP-40 vs SDS log2 ratios) (log2 ratio difference); higher = more soluble in mitosis
[4] = tested on: HeLa Kyoto; assay: thermal stability score vs G1/S (z-score of summed log2 fold changes over temperatures); higher = more thermally stable than in G1/S
[5] = cell cycle stage: early G1 (4.5 h after nocodazole release)
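For melting temperature (median over replicates), in situ in this document: HeLa Kyoto cells synchronized by double thymidine or nocodazole block, proteins quantified by TMT10plex mass spectrometry, three independent biological replicates.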
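For solubility change mitosis vs G1/S (difference of NP-40 vs SDS log2 ratios) in this document: synchronized HeLa Kyoto cells (double thymidine block for G1/S, nocodazole release for mitosis), protein amounts in NP-40 versus SDS lysates quantified by mass spectrometry, three biological replicates.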
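For solubility in G1/S (NP-40 vs SDS abundance) in this document: HeLa Kyoto cells arrested at G1/S by double thymidine block, proteins quantified by TMT10plex mass spectrometry in mild NP-40 versus SDS extracts, three biological replicates.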
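For thermal stability score vs G1/S (z-score of summed log2 fold changes over temperatures) in this document: synchronized HeLa Kyoto cells, proteins quantified by TMT10plex mass spectrometry, three biological replicates, mitosis taken 0.5 h after nocodazole release, G1/S directly after double thymidine block.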

Sequence	solubility in G1/S (log2) [1]	melting temperature ([2]; cell cycle stage: G1/S) [°C]	solubility change mitosis (log2) [3]	thermal stability score [4, 5]	thermal stability score ([4]; cell cycle stage: mitosis)	melting temperature ([2]; cell cycle stage: mitosis) [°C]
MKVKMLSRNPDNYVRETKLDLQRVPRNYDPALHPFEVPREYIRALNATKLERVFAKPFLASLDGHRDGVNCLAKHPEKLATVLSGACDGEVRIWNLTQRNCIRTIQAHEGFVRGICTRFCGTSFFTVGDDKTVKQWKMDGPGYGDEEEPLHTILGKTVYTGIDHHWKEAVFATCGQQVDIWDEQRTNPICSMTWGFDSISSVKFNPIETFLLGSCASDRNIVLYDMRQATPLKKVILDMRTNTICWNPMEAFIFTAANEDYNLYTFDMRALDTPVMVHMDHVSAVLDVDYSPTGKEFVSASFDKSIRIFPVDKSRSREVYHTKRMQHVICVKWTSDSKYIMCGSDEMNIRLWKANASEKLGVLTSREKAAKDYNQKLKEKFQHYPHIKRIARHRHLPKSIYSQIQEQRIMKEARRRKEVNRIKHSKPGSVPLVSEKKKHVVAVVK [DCAF13]	-2.16	54.8	0.446	-1.4	-1.29	–
MKVTVCFGRTRVVVPCGDGHMKVFSLIQQAVTRYRKAIAKDPNYWIQVHRLEHGDGGILDLDDILCDVADDKDRLVAVFDEQDPHHGGDGTSASSTGTQSPEIFGSELGTNNVSAFQPYQATSEIEVTPSVLRANMPLHVRRSSDPALIGLSTSVSDSNFSSEEPSRKNPTRWSTTAGFLKQNTAGSPKTCDRKKDENYRSLPRDTSNWSNQFQRDNARSSLSASHPMVGKWLEKQEQDEDGTEEDNSRVEPVGHADTGLEHIPNFSLDDMVKLVEVPNDGGPLGIHVVPFSARGGRTLGLLVKRLEKGGKAEHENLFRENDCIVRINDGDLRNRRFEQAQHMFRQAMRTPIIWFHVVPAANKEQYEQLSQSEKNNYYSSRFSPDSQYIDNRSVNSAGLHTVQRAPRLNHPPEQIDSHSRLPHSAHPSGKPPSAPASAPQNVFSTTVSSGYNTKKIGKRLNIQLKKGTEGLGFSITSRDVTIGGSAPIYVKNILPRGAAIQDGRLKAGDRLIEVNGVDLVGKSQEEVVSLLRSTKMEGTVSLLVFRQEDAFHPRELNAEPSQMQIPKETKAEDEDIVLTPDGTREFLTFEVPLNDSGSAGLGVSVKGNRSKENHADLGIFVKSIINGGAASKDGRLRVNDQLIAVNGESLLGKTNQDAMETLRRSMSTEGNKRGMIQLIVARRISKCNELKSPGSPPGPELPIETALDDRERRISHSLYSGIEGLDESPSRNAALSRIMGESGKYQLSPTVNMPQDDTVIIEDDRLPVLPPHLSDQSSSSSHDDVGFVTADAGTWAKAAISDSADCSLSPDVDPVLAFQREGFGRQSMSEKRTKQFSDASQLDFVKTRKSKSMDLGIADETKLNTVDDQKAGSPSRDVGPSLGLKKSSSLESLQTAVAEVTLNGDIPFHRPRPRIIRGRGCNESFRAAIDKSYDKPAVDDDDEGMETLEEDTEESSRSGRESVSTASDQPSHSLERQMNGNQEKGDKTDRKKDKTGKEKKKDRDKEKDKMKAKKGMLKGLGDMFRFGKHRKDDKIEKTGKIKIQESFTSEEERIRMKQEQERIQAKTREFRERQARERDYAEIQDFHRTFGCDDELMYGGVSSYEGSMALNARPQSPREGHMMDALYAQVKKPRNSKPSPVDSNRSTPSNHDRIQRLRQEFQQAKQDEDVEDRRRTYSFEQPWPNARPATQSGRHSVSVEVQMQRQRQEERESSQQAQRQYSSLPRQSRKNASSVSQDSWEQNYSPGEGFQSAKENPRYSSYQGSRNGYLGGHGFNARVMLETQELLRQEQRRKEQQMKKQPPSEGPSNYDSYKKVQDPSYAPPKGPFRQDVPPSPSQVARLNRLQTPEKGRPFYS [PARD3]	-0.137	47.7	0.111	0.772	2.38	49.3
MLCGRPRSSSDNRNFLRERAGLSSAAVQTRIGNSAASRRSPAARPPVPAPPALPRGRPGTEGSTSLSAPAVLVVAVAVVVVVVSAVAWAMANYIHVPPGSPEVPKLNVTVQDQEEHRCREGALSLLQHLRPHWDPQEVTLQLFTDGITNKLIGCYVGNTMEDVVLVRIYGNKTELLVDRDEEVKSFRVLQAHGCAPQLYCTFNNGLCYEFIQGEALDPKHVCNPAIFRLIARQLAKIHAIHAHNGWIPKSNLWLKMGKYFSLIPTGFADEDINKRFLSDIPSSQILQEEMTWMKEILSNLGSPVVLCHNDLLCKNIIYNEKQGDVQFIDYEYSGYNYLAYDIGNHFNEFAGVSDVDYSLYPDRELQSQWLRAYLEAYKEFKGFGTEVTEKEVEILFIQVNQFALASHFFWGLWALIQAKYSTIEFDFLGYAIVRFNQYFKMKPEVTALKVPE [ETNK1]	-0.0579	53	-0.288	-1.17	-1.91	51.9
